Data on two substances can be found in paper PMC2712960.

Experiment [1] has as its target b6f complex (monomer of 140 kD) (C. reinhardtii (endogenous)) (UniProt P23577). In words: native gel or EMSA. (A gel shift assay detects complexes by their altered migration in electrophoresis.)
Experiment [2] has as its target b6f complex with cytochrome b6 C35V (C. reinhardtii (endogenous)) (UniProt P23577). As to the kind of experiment: native gel or EMSA.

What is called stoichiometry N is the number of molecules, sites or subunits per partner or assembly. “b6f complex (monomer of 140 kD) (from UniProt P23577 32-317; Q00471 1-215; P23230 1-160)”: the stoichiometry N in experiment [1] amounted to 2.
For “b6f complex with cytochrome b6 C35V (from UniProt P23577 32-317; Q00471 1-215; P23230 1-160)”, the stoichiometry N in experiment [2] is 2.
